Experimental findings from patent US20250277029A1 (Amgen, published 2025) are described below.

One experiment addresses T1, His-tagged huCB1-ND (human, UniProt P21554 99-414, limits assumed).
T1 construct: The real construct may be truncated or engineered; also called CB1-nanodisc; not shown: histidine purification tag
The experiment in a line: flow cytometry, yeast-displayed Fab, 0.5 nM CB1 ND. A general note: Flow cytometry measures light scatter and fluorescence of single cells or particles in a stream.

Another experiment concerns the target T2, Empty ND.
T2 construct: It carries no receptor; the scaffold is its only protein; also called empty nanodisc
Description: flow cytometry, yeast-displayed Fab, 50 nM Empty ND.

The target of experiment [1] is T3, GFP-fused huCB1-SMALP (human, UniProt P21554 1-472).
T3 construct: Human CB1 fused to GFP in styrene maleic acid lipoparticles, made as in Luna et al. 2018; also called huCB1-GFP-SMALP; GFP-tagged huCB1-SMALP; not shown: GFP fused to huCB1
T3 sequence (P21554 whole entry, the tested form may be a part): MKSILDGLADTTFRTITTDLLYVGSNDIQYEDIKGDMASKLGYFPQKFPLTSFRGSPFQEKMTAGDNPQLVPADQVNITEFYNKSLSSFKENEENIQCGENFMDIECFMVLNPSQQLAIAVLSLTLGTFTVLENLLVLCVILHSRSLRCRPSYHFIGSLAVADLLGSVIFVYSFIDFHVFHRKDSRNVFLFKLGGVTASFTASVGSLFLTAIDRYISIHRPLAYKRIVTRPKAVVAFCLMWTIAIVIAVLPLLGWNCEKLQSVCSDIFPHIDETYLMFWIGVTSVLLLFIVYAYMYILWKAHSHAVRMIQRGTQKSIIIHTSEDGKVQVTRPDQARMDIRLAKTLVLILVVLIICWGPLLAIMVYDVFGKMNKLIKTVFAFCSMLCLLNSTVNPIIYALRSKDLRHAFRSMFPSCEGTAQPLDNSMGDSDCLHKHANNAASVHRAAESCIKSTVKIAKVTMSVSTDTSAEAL
The experiment in a line: flow cytometry, yeast-displayed Fab, 10 nM CB1 SMALP.

Experiment [2] concerns the target T3, GFP-fused huCB1-SMALP. Description: flow cytometry, yeast-displayed Fab, 5 nM CB1 SMALP.

T1 sequence (P21554 99-414 limits assumed): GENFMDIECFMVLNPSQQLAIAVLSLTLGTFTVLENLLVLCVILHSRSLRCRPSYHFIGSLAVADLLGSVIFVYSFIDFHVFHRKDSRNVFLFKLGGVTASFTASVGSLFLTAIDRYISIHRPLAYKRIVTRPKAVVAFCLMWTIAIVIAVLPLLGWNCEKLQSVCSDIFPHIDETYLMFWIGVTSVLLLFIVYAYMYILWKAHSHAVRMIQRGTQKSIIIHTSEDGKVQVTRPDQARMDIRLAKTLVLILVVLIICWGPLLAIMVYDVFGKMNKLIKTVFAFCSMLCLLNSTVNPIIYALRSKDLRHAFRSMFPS

B1: LIBC674024-1 (Fab on yeast) (Fab, V domains shown)
VH: QVQLQESGPGLVKPSQTLSLTCTVSGGSIRRGGDYWSWIRQHPGKGLEWIGHVYQTGSTKYNPSFKNRVRISVNTYKNQFSLKLSSVTAADTAVYYCARGYDVSGYSYYYYGLDVWGQGTTVTVSS
VL: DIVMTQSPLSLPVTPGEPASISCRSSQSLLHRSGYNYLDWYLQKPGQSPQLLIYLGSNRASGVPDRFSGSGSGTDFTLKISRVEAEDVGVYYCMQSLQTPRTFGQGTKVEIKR
notes: Clone of the Fab-yeast libraries
As for B1, the “relative binding fold change compared to LIBC523797-1(Fab)” value (“relative binding fold change” below) in the experiment with His-tagged huCB1-ND was 0.49 fold; with Empty ND, 0.55 fold; in the experiment with GFP-fused huCB1-SMALP [1] it was 2.39 fold; with GFP-fused huCB1-SMALP [2], 1.24 fold.

B2: LIBC674214-1 (Fab on yeast) (Fab, V domains shown)
VH: QVQLQESGPGLVKPSQTLSLTCTVSGGSIRRGGDYWSWIRQHPGKGLEWIGHVYYEGSTKYNPSFRGRVRISVNTYKNQFSLKLSSVTAADTAVYYCARGYDVSGYSYYYYGLDVWGQGTTVTVSS
VL: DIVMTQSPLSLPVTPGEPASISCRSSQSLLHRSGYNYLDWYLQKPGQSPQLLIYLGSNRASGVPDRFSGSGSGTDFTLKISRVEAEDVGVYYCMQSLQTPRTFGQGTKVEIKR
notes: as for B1
For the molecule B2, the “relative binding fold change” value was 1.76 fold with His-tagged huCB1-ND, 1.09 fold with Empty ND, 2.1 fold with GFP-fused huCB1-SMALP [1] and 1.17 fold in the experiment with GFP-fused huCB1-SMALP [2].

B3: LIBC674229-1 (Fab on yeast) (Fab, V domains shown)
VH: QVQLQESGPGLVKPSQTLSLTCTVSGGSIRRGGDYWSWIRQHPGKGLEWIGHIYQTGQTKYNPSFKGRVRISVNTYKNQFSLKLSSVTAADTAVYYCARGYDVSGYSYYYYGMDVWGQGTTVTVSS
VL: DIVMTQSPLSLPVTPGEPASISCRSSQSLLHRSGYNYLDWYLQKPGQSPQLLIYQGSNRASGVPDRFSGSGSGTDFTLKISRVEAEDVGVYYCMQSLQTPRTFGQGTKVEIKR
notes: as for B1
Take B3: the “relative binding fold change” value with His-tagged huCB1-ND came to 2.22 fold; with Empty ND it was 0.75 fold; with GFP-fused huCB1-SMALP [1], 3.17 fold; with GFP-fused huCB1-SMALP [2], 1.11 fold.

B4: LIBC674043-1 (Fab on yeast) (Fab, V domains shown)
VH: QVQLQESGPGLVKPSQTLSLTCTVSGGSIRRGGDYWSWIRQHPGKGLEWIGHIYYTGQTTYNPNFKGRVRISVNTYKNQFSLKLSSVTAADTAVYYCARGYDASGYSYYYYGMDVWGQGTTVTVSR
VL: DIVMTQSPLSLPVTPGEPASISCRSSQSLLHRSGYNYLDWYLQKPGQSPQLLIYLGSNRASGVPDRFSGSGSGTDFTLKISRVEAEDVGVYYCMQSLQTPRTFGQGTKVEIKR
notes: Original clone of the Fab-yeast libraries, without the R149S reversion
With B4, the “relative binding fold change” value with His-tagged huCB1-ND is 1.85 fold; in the experiment with Empty ND, 0.75 fold; in the experiment with GFP-fused huCB1-SMALP [1], 3.23 fold; in the experiment with GFP-fused huCB1-SMALP [2], 1.2 fold.

B5: LIBC674235-1 (Fab on yeast) (Fab, V domains shown)
VH: QVQLQESGPGLVKPSQTLSLTCTVSGGSIRRGGDYWSWIRQHPGKGLEWIGHVYYAGSTTYNPSLKSRVRISVNTYKNQFSLKLSSVTAADTAVYYCARGYDVSGYSYYYYGLDVWGQGTTVTVSS
VL: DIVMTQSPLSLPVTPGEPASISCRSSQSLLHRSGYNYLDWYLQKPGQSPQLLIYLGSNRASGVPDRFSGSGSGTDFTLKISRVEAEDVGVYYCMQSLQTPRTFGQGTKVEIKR
notes: as for B1
On to B5, for which the “relative binding fold change” value was found to be 1.28 fold with His-tagged huCB1-ND, 0.72 fold in the experiment with Empty ND, 2.05 fold with GFP-fused huCB1-SMALP [1] and 1.3 fold in the experiment with GFP-fused huCB1-SMALP [2].

B6: LIBC674216-1 (Fab on yeast) (Fab, V domains shown)
VH: QVQLQESGPGLVKPSQTLSLTCTVSGGSIRRGGDYWSWIRQHPGKGLEWIGHIYYTGQTAYNPSLRNRVRISVNTYKNQFSLKLSSVTAADTAVYYCARGYDISGYSYYYYGLDVWGQGTTVTVSS
VL: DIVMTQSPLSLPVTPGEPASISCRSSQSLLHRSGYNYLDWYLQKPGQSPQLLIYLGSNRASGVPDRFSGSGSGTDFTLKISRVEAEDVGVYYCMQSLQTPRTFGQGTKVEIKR
notes: as for B1
Regarding B6, the “relative binding fold change” value was 1.66 fold with His-tagged huCB1-ND, 0.65 fold with Empty ND, 1.96 fold in the experiment with GFP-fused huCB1-SMALP [1] and 1.1 fold with GFP-fused huCB1-SMALP [2].

B7: LIBC674276-1 (Fab on yeast) (Fab, V domains shown)
VH: QVQLQESGPGLVKPSQTLSLTCTVSGGSIRRGGDYWSWIRQHPGKGLEWIGHVYYTGSTTYNPNFKGRVRISVNTYKNQFSLKLSSVTAADTAVYYCARGYDASGYSYYYYGLDVWGQGTTVTVSS
VL: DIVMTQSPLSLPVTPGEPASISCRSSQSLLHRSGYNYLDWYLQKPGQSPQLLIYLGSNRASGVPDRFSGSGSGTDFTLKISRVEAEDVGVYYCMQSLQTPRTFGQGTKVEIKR
notes: as for B1
As for B7, the “relative binding fold change” value with His-tagged huCB1-ND was 2.04 fold; with Empty ND it was 0.51 fold; with GFP-fused huCB1-SMALP [1], 2.06 fold; in the experiment with GFP-fused huCB1-SMALP [2] it was 1.17 fold.

B8: LIBC674090-1 (Fab on yeast) (Fab, V domains shown)
VH: QVQLQESGPGLVKPSQTLSLTCTVSGGSIRRGGDYWSWIRQHPGKGLEWIGHIYYAGSTAYNPNFRGRVRISVNTYKNQFSLKLSSVTAADTAVYYCARGYDTSGYSYYYYGLDVWGQGTTVTVSS
VL: DIVMTQSPLSLPVTPGEPASISCRSSQSLLHRSGYNYLDWYLQKPGQSPQLLIYQGSNRASGVPDRFSGSGSGTDFTLKISRVEAEDVGVYYCMQSLQTPRTFGQGTKVEIKR
notes: as for B1
In the case of B8, the “relative binding fold change” value was 1.35 fold with His-tagged huCB1-ND, 0.99 fold in the experiment with Empty ND, 2.85 fold with GFP-fused huCB1-SMALP [1] and 1.2 fold with GFP-fused huCB1-SMALP [2].

B9: LIBC674200-1 (Fab on yeast) (Fab, V domains shown)
VH: QVQLQESGPGLVKPSQTLSLTCTVSGGSIRRGGDYWSWIRQHPGKGLEWIGHVYYTGQTAYNPNFRNRVRISVNTYKNQFSLKLSSVTAADTAVYYCARGYDVSGYSYYYYGMDVWGQGTTVTVSS
VL: DIVMTQSPLSLPVTPGEPASISCRSSQSLLHRSGYNYLDWYLQKPGQSPQLLIYLGSNRASGVPGRFSGSGSGTDFTLKISRVEAEDVGVYYCMQSLQTPRTFGQGTKVEIKR
notes: Original clone of the Fab-yeast libraries, without the LC G76D reversion
With B9, the “relative binding fold change” value came to 2.08 fold with His-tagged huCB1-ND, 0.74 fold with Empty ND, 3.31 fold with GFP-fused huCB1-SMALP [1] and 1.33 fold in the experiment with GFP-fused huCB1-SMALP [2].

B10: LIBC674257-1 (Fab on yeast) (Fab, V domains shown)
VH: QVQLQESGPGLVKPSQTLSLTCTVSGGSIRRGGDYWSWIRQHPGKGLEWIGHIYYTGQTKYNPSLRGRVRISVNTYKNQFSLKLSSVTAADTAVYYCARGYDISGYSYYYYGLDVWGQGTTVTVSS
VL: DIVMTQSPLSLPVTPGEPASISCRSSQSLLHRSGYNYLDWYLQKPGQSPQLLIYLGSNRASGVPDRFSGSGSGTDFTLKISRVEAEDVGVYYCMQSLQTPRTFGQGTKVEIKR
notes: as for B1
As to B10, the “relative binding fold change” value is 1.86 fold with His-tagged huCB1-ND, 0.73 fold with Empty ND, 3.34 fold with GFP-fused huCB1-SMALP [1] and 1.19 fold in the experiment with GFP-fused huCB1-SMALP [2].

B11: LIBC674035-1 (Fab on yeast) (Fab, V domains shown)
VH: QVQLQESGPGLVKPSQTLSLTCTVSGGSIRRGGDYWSWIRQHPGKGLEWIGHIYYAGQTKYNPSFKNRVRISVNTYKNQFSLKLSSVTAADTAVYYCARGYDISGYSYYYYGLDVWGQGTTVTVSS
VL: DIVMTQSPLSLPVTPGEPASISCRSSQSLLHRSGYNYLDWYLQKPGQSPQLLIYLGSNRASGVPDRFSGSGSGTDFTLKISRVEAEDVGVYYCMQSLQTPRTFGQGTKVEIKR
notes: as for B1
Take B11: the “relative binding fold change” value with His-tagged huCB1-ND worked out at 0.52 fold; with Empty ND, 0.56 fold; with GFP-fused huCB1-SMALP [1], 2.74 fold; in the experiment with GFP-fused huCB1-SMALP [2], 1.29 fold.

B12: LIBC673952-1 (Fab on yeast) (Fab, V domains shown)
VH: QVQLQESGPGLVKPSQTLSLTCTVSGGSIRRGGDYWSWIRQHPGKGLEWIGHVYYTGQTTYNPSFRGRVTISVNTYKNQFSLKLSSVTAADTAVYYCARDYDILTGYSYYYYGLDVWGQGTTVTVSS
VL: DIVMTQSPLSLPVTPGEPASISCRSSQSLLHRSGYNYLDWYLQKPGQSPQLLIYQGSNRASGVPDRFSGSGSGTDFTLKISRVEAEDVGVYYCRQARALPRTFGQGTKVEIKR
notes: as for B1
With B12, the “relative binding fold change” value with His-tagged huCB1-ND came to 0.77 fold; with Empty ND, 0.62 fold; with GFP-fused huCB1-SMALP [1], 1.91 fold; with GFP-fused huCB1-SMALP [2] it was 1.23 fold.
